A word on the Kd: it is a measure of binding affinity in units of concentration.

In data set [1] the target is T1, drUvrA1 (Deinococcus radiodurans, UniProt Q46577 1-1016). Kind of data set: fluorescence polarization; 2.5 mM Mg2+, 2.5 mM ATP; Hill 1.34; 50 mM Tris pH 7.5, 50 mM KCl, 5 mM DTT, 0.01% Tween 20, 2.5 mM MgCl2, 2.5 mM ATP, 0.1 mg/mL BSA; room temperature; 2 nM DNA, 0-1 uM drUvrA1 (dimer). Particulars: protein: recombinant; tags: N-terminal His-tag removed by TEV; chain copies: 2; label: 5'-ATTO633 on strand 1; internal fluorescein-dT; blunt. (In general: Fluorescence polarisation rises when a labelled molecule tumbles more slowly, as on binding a larger partner.)
T1 sequence (Q46577 whole entry): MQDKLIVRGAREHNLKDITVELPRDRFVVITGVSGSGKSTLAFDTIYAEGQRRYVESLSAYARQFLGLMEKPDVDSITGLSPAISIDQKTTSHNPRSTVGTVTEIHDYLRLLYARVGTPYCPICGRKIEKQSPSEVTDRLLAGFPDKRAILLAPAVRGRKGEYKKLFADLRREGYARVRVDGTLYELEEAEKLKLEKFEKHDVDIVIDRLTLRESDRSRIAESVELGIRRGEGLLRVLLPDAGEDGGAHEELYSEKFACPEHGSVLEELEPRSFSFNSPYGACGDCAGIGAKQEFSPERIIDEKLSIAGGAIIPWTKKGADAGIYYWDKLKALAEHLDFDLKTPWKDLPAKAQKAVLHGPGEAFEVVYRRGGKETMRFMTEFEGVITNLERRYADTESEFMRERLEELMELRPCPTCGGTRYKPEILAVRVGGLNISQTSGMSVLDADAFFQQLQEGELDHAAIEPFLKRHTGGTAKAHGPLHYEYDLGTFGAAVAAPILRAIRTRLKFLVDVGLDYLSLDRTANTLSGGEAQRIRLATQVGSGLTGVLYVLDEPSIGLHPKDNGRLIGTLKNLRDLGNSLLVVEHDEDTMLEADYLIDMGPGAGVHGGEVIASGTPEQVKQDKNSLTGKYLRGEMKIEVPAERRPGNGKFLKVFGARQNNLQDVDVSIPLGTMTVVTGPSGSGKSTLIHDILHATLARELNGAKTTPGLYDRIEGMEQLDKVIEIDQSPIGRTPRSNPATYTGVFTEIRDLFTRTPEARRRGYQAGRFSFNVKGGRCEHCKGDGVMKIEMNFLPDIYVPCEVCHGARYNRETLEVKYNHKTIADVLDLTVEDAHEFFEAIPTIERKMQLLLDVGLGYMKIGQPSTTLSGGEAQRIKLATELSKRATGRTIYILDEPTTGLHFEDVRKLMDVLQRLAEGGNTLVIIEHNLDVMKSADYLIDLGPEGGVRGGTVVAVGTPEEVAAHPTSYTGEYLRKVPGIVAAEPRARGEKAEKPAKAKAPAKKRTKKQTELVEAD

Data set [2] addresses T1, drUvrA1. In words: fluorescence polarization; 2.5 mM Mg2+, 2.5 mM ATP; Hill 0.92; 50 mM Tris pH 7.5, 50 mM KCl, 5 mM DTT, 0.01% Tween 20, 2.5 mM MgCl2, 2.5 mM ATP, 0.1 mg/mL BSA; room temperature; 2 nM DNA, 0-1 uM drUvrA1 (dimer). Particulars: protein: recombinant; tags: N-terminal His-tag removed by TEV; chain copies: 2; label: 5'-FAM on strand 1; blunt.
Data set [3] addresses T1, drUvrA1. Kind of data set: fluorescence polarization; 2.5 mM Mg2+, 2.5 mM ATP; Hill 0.97; 50 mM Tris pH 7.5, 50 mM KCl, 5 mM DTT, 0.01% Tween 20, 2.5 mM MgCl2, 2.5 mM ATP, 0.1 mg/mL BSA; room temperature; 2 nM DNA, 0-1 uM drUvrA1 (dimer). The conditions noted are these: protein: recombinant; tags: N-terminal His-tag removed by TEV; chain copies: 2; label: 5'-FAM on strand 1; blunt.

The target of data set [4] is T1, drUvrA1. Kind of data set: fluorescence polarization; 2.5 mM Mg2+, 2.5 mM ATP; Hill 2.10; 50 mM Tris pH 7.5, 50 mM KCl, 5 mM DTT, 0.01% Tween 20, 2.5 mM MgCl2, 2.5 mM ATP, 0.1 mg/mL BSA; room temperature; 2 nM DNA, 0-1 uM drUvrA1 (dimer). The conditions noted are these: protein: recombinant; tags: N-terminal His-tag removed by TEV; chain copies: 2; label: 5'-ATTO633 on strand 1; internal fluorescein-dT; blunt.

B1: F26-seq1 (dsDNA)
DNA 1: GACTACGTACTGTTACGGCTCCATCTCTACCGCAATCAGGCCAGATCTGC
DNA 2: GCAGATCTGGCCTGATTGCGGTAGAGATGGAGCCGTAACAGTACGTAGTC
modifications: fluorescein-conjugated dT at position 26 of strand 1
In the case of B1, in data set [1], the Kd came out at 9 ± 0.7 nM.

B2: 5'-FAM-seq1 (seq1-FAM) (dsDNA)
DNA 1: B1 DNA 1
DNA 2: B1 DNA 2
With B2, the Kd in data set [2] came to 85 ± 12 nM.

B3: B26-seq1 (dsDNA)
DNA 1: B1 DNA 1
DNA 2: B1 DNA 2
modifications: biotin-conjugated dT at position 26 of strand 1
Regarding B3, the Kd in data set [3] worked out at 128 ± 15 nM.

B4: F26-seq2 (dsDNA)
DNA 1: GTTAGCGAACGATACCTTCAGTAGATCAAGTCCTAGCTGACCGGTTCGGC
DNA 2: GCCGAACCGGTCAGCTAGGACTTGATCTACTGAAGGTATCGTTCGCTAAC
modifications: fluorescein-conjugated dT at position 26 of strand 1
Regarding B4, in data set [4], the Kd came out at 9 ± 0.5 nM.

Source of the values: publication PMC8837605, “In vitro reconstitution of an efficient nucleotide excision repair system using mesophilic enzymes from Deinococcus radiodurans”.
